According to paper PMC5187519:

B1: IF3DL (double-labeled IF3; IF3 E166C with Atto-540Q at the CTD and Atto-488 at the NTD) (natural protein)
chain: MKGGKRVQTARPNRINGEIRAQEVRLTGLEGEQLGIVSLREALEKAEEAGVDLVEISPNAEPPVCRIMDYGKFLYEKSKSSKEQKKKQKVIQVKEIKFRPGTDEGDYQVKLRSLIRFLEEGDKAKITLRFRGREMAHQQIGMEVLNRVKDDLQELAVVESFPTKICGRQMIMVLAPKKKQ
modifications: Atto-540Q maleimide on the recombinant cysteine 166 (E166C, CTD); Atto-488 maleimide on the natural cysteine 65 (NTD)
B2: Initiation factor IF1 (natural protein)
chain: MAKEDNIEMQGTVLETLPNTMFRVELENGHVVTAHISGKMRKNYIRILTGDKVTVELTPYDLSKGRIVFRSR

Tests used:
[1] = target: 30S subunit (minor ribosomal subunit); experiment: stopped-flow fluorescence; pre-steady state; 30S subunits (0.1 µM) mixed with equimolar IF3DL; intramolecular FRET of IF3DL; TAKM10 buffer, 25 °C; fit with two exponential terms; apparent rate constants
[2] = target: 30S–IF3DL complex (UniProt P0A707); experiment: stopped-flow fluorescence; pre-steady state; preformed 30S–IF3DL (0.1 µM) mixed with a 10-fold molar excess of IF1 (1 µM); intramolecular FRET of IF3DL; TAKM10 buffer, 25 °C; single exponential fit; apparent rate constant
[3] = target: 30S–IF3DL complex (UniProt P0A707); experiment: other fluorescence titration; equilibrium; preformed 30S–IF3DL (0.5 µM) titrated with IF1 (0.1-2 µM); intramolecular FRET of IF3DL; HAKM10 buffer; one-site binding fit

Binder	kapp1 (initial bimolecular encounter, 0.1 µM each) [1] [s⁻¹]	kapp (IF1-dependent FRET change at 1 µM IF1; a step after the initial binding) [2] [s⁻¹]	Kd [3] [nM]
B1	16	–	–
B2	–	0.26	100
